Measurements taken from patent US20180112005A1 (published 2018).

What was measured:
[1] = molecular target: T1, hFLAG-EGF34+NRR-His6 (101V), the human Notch1 NRR immunogen (human Notch1 V1307-Q1733) (human, UniProt P46531 1307-1733); experiment: competitive phage-binding ELISA; phage-displayed Fab pre-mixed with serial dilutions of soluble NRR1, then captured on NRR1-coated plate
T1 construct: Secreted from Sf-9 cells; also called hNotch1 NRR; human NRR1
Method: (§1) To identify the phage antibodies that bound to both human and murine Notch1 NRR, all unique clones were tested for binding to human and murine Notch1 by ELISA. The affinities of phage antibodies were ranked using single spot competition ELISA as described below in this Example. The phage antibody IC50 values were further determined using competitive phage-binding ELISA essentially described in Lee, C. V., et al. (2004) J Mol Biol 340, 1073-93. Briefly, NUNC 96 well Maxisorp immunoplates were coated overnight at 4° C. with 1 μg/ml human NRR1 or murine NRR1, and were blocked for 1 hour at room temperature with blocking buffer PBST (PBS and 1% BSA and 0.05% Tween 20). Phage was mixed with serial dilution of human or murine NRR1 at room temperature for 1 hour before the mixture was added to human and murine NRR1 coated plate. Bound phage were detected with anti-M13 HRP conjugates, developed with TMB substrate for approximately 5 minutes, quenched with 1M H₃PO₄, and read spectrophotometrically at 450 nm.
(§2) In comparison to the OD_{450 nm} reduction (%) of the well of parental phage (100%), clones that had the OD_{450 nm} reduction (%) lower than 50% were picked for sequence analysis. Unique clones were selected for phage preparation to determine binding affinity (phage IC50) by comparison with parental clones (Table 4).

[2] = molecular target: T2, mFLAG-EGF34+NRR-His6, the murine Notch1 NRR immunogen (mouse Notch1 V1307-Q1723) (mouse, UniProt Q01705 1307-1723); experiment: as above
T2 construct: N-terminal FLAG tag and C-terminal His tag, expressed in 293-F cells; also called mNotch1 NRR; mouse Notch1 NRR
T2 sequence (Q01705 other isoform, or with tags, fused parts or gaps): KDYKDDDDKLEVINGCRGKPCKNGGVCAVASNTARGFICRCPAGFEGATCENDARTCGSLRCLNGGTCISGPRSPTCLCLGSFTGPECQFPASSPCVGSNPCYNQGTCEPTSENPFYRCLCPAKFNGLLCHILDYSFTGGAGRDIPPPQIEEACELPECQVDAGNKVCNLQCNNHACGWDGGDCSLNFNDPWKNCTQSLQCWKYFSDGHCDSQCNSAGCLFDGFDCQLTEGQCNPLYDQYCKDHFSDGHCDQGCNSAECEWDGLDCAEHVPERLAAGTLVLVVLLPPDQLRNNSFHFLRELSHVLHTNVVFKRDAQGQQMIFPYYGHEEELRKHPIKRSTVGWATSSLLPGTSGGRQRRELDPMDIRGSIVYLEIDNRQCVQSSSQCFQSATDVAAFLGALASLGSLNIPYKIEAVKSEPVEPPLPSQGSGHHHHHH
Method: as §1, §2

[3] = molecular target: T1, hFLAG-EGF34+NRR-His6 (101V), the human …; experiment: SPR (BIAcore-3000), IgG captured on rabbit anti-human IgG, NRR1-ECD protein injected 3.9-500 nM, 25 C, 1:1 Langmuir
Method: (§3) To further characterize the binding affinity and binding kinetics of the anti-Notch1 NRR Mabs, surface plasmon resonance (SRP) measurement with a BIAcore™-3000 was used (BIAcore, Inc., Piscataway, N.J.). Briefly, carboxymethylated dextran biosensor chips (CM5, BIAcore Inc.) were activated with N-ethyl-N′-(3-dimethylaminopropyl)-carbodiimide hydrochloride (EDC) and N-hydroxysuccinimide (NHS) according to the supplier's instructions. Rabbit anti human antibody (Pierce) was diluted with 10 mM sodium acetate, pH 4.8, into 20 μg/ml before injection at a flow rate of 5 μl/minute to achieve approximately 3000 response units (RU) of coupled antibody. Next, 1M ethanolamine was injected to block unreacted groups. Anti-NRR1 mab (formatted as a full-length IgG) was captured by rabbit anti-human IgG coated on the chips to achieve approximately 200 response units (RU). For kinetics measurements, two-fold serial dilutions of human NRR1-ECD or murine NRR1-ECD proteins (3.9 nM to 500 nM) were injected in PBT buffer (PBS with 0.05% Tween 20) at 25° C. with a flow rate of 30 μl/min. Association rates (kₒₙ) and dissociation rates (koff) were calculated using a simple one-to-one Langmuir binding model (BIAcore Evaluation Software version 3.2). The equilibrium dissociation constant (KD) was calculated as the ratio koff/kₒₙ.
(§4) “NA” signifies that the measurement was not performed.

[4] = molecular target: T2, mFLAG-EGF34+NRR-His6, the murine Notch1 …; experiment: as above
Method: as §3, §4

[5] = molecular target: human Notch1 expressed on NIH-3T3 cells (human, UniProt P46531 19-2555); experiment: cell-based or functional assay
[6] = molecular target: T3, human Notch2 NRR (human, UniProt Q04721 1425-1677); experiment: cross-reactivity test of the IgG (Table 3; method not detailed)
T3 construct: domain: NRR; It is split here into the two species; also called human NRR2
T3 sequence (looked up): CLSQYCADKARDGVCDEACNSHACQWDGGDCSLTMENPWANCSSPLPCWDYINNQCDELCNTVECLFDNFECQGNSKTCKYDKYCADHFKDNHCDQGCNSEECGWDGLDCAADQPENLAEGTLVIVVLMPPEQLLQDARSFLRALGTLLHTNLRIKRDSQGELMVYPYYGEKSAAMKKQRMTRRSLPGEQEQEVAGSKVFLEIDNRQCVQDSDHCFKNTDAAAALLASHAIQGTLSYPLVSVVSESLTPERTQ

[7] = molecular target: T4, murine Notch2 NRR (mouse, UniProt O35516 1425-1679); experiment: as above
T4 construct: domain: NRR; It is split here into the two species; also called mouse NRR2
T4 sequence (looked up): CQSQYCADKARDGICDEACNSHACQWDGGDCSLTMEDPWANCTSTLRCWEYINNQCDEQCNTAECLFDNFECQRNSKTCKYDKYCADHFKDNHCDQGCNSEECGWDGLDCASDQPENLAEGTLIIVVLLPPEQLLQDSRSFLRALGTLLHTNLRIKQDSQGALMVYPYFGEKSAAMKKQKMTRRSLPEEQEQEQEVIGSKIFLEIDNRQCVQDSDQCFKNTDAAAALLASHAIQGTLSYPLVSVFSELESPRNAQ

[8] = molecular target: T5, human Notch3 NRR (human, UniProt Q9UM47 1378-1643, limits assumed); experiment: as above
T5 construct: domain: NRR; It is split here into the two species; also called human NRR3
T5 sequence (Q9UM47 1378-1643 limits assumed): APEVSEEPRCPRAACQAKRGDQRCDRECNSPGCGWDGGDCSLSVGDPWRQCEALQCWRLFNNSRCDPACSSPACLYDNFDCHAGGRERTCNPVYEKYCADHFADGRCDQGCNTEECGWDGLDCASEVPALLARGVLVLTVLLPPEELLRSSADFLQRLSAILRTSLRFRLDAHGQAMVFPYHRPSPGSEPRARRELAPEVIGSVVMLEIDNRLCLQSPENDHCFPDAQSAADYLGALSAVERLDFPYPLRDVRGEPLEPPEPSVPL

[9] = molecular target: T6, murine Notch3 NRR (mouse, UniProt Q61982 1379-1643, limits assumed); experiment: as above
T6 construct: domain: NRR; It is split here into the two species; also called mouse NRR3
T6 sequence (Q61982 1379-1643 limits assumed): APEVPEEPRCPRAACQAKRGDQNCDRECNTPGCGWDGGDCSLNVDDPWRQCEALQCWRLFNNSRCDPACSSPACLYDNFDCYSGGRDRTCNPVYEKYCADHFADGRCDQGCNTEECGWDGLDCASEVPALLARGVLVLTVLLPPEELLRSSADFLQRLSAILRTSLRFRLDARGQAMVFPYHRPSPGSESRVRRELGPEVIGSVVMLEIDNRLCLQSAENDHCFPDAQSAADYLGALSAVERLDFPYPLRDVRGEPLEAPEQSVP

[10] = molecular target: T7, human Notch4 NRR (human, UniProt Q99466 1170-1447, limits assumed); experiment: as above
T7 construct: domain: NRR; It is split here into the two species; also called human NRR4
T7 sequence (looked up): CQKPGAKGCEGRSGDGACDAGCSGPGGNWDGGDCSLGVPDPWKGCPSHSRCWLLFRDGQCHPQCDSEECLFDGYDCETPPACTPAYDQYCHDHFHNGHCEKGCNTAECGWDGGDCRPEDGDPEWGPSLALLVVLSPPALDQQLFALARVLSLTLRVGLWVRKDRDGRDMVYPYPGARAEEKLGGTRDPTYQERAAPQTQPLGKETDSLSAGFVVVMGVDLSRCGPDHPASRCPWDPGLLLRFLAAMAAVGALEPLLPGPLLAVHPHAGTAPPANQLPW

[11] = molecular target: T8, murine Notch4 NRR (mouse, UniProt P31695 1166-1443, limits assumed); experiment: as above
T8 construct: domain: NRR; It is split here into the two species; also called mouse NRR4
T8 sequence (looked up): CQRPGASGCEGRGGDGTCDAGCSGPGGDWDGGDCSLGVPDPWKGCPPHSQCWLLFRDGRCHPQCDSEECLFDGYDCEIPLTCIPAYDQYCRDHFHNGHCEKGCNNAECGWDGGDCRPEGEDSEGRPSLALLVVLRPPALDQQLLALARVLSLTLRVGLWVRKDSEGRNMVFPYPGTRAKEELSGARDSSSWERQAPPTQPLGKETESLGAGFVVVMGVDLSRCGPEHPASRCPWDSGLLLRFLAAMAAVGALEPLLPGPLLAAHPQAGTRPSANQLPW

B1: Antibody A-1, phage-displayed Fab clone (Fab, V domains shown)
VH: EVQLVESGGGLVQPGGSLRLSCAASGFTFSSYWIHWVRQAPGKGLEWVARINPPNGSAHYADSVKGRFTISADTSKNTAYLQMNSLRAEDTAVYYCARGSGFRWVMDYWGQGTLVTVSS
VL: DIQMTQSPSSLSASVGDRVTITCRASQDVSTAVAWYQQKPGKAPKLLIYSASFLYSGVPSRFSGSGSGTDFTLTISSLQPEDFATYYCQQSYTTPATFGQGTKVEIKR
IC50 [1]: 0.8 nM | IC50 [2]: 0.6 nM

B2: Antibody A-1 (antibody, IgG1, V domains shown)
VH: EVQLVESGGGLVQPGGSLRLSCAASGFTFSSYWIHWVRQAPGKGLEWVARINPPNGSAHYADSVKGRFTISADTSKNTAYLQMNSLRAEDTAVYYCARGSGFRWVMDYWGQGTLVTVSS
VL: DIQMTQSPSSLSASVGDRVTITCRASQDVSTAVAWYQQKPGKAPKLLIYSASFLYSGVPSRFSGSGSGTDFTLTISSLQPEDFATYYCQQSYTTPATFGQGTKVEIKR
notes: also called Antibody A-1-hIgG1
Kd [3]: 3.43 nM | koff [3]: 0.00023 s⁻¹ | kon [3]: 67000 M⁻¹ s⁻¹ | Kd [4]: 3.88 nM | koff [4]: 0.00033 s⁻¹ | kon [4]: 85000 M⁻¹ s⁻¹

B3: Antibody A-2 (antibody, IgG1, V domains shown)
VH: EVQLVESGGGLVQPGGSLRLSCAASGFTFSSYWIHWVRQAPGKGLEWVARINPPNRSNQYADSVKGRFTISADTSKNTAYLQMNSLRAEDTAVYYCARGSGFRWVMDYWGQGTLVTVSS
VL: DIQMTQSPSSLSASVGDRVTITCRASQDVSTAVAWYQQKPGKAPKLLIYSASFLYSGVPSRFSGSGSGTDFTLTISSLQPEDFATYYCQQFYTTPSTFGQGTKVEIKR
notes: also called Antibody A-2-hIgG1
Kd [3]: 2.53 nM | koff [3]: 0.00022 s⁻¹ | kon [3]: 87000 M⁻¹ s⁻¹ | Kd [4]: 3.09 nM | koff [4]: 0.00034 s⁻¹ | kon [4]: 110000 M⁻¹ s⁻¹

B4: Antibody A-3, phage-displayed Fab clone (Fab, V domains shown)
VH: EVQLVESGGGLVQPGGSLRLSCAASGFTFSSYWIHWVRQAPGKGLEWVARINPANGSTRYADSVKGRFTISADTSKNTAYLQMNSLRAEDTAVYYCARGSGFRWVMDYWGQGTLVTVSS
VL: DIQMTQSPSSLSASVGDRVTITCRASQDVSTAVAWYQQKPGKAPKLLIYSASFLYSGVPSRFSGSGSGTDFTLTISSLQPEDFATYYCQQSFSTPATFGQGTKVEIKR
IC50 [1]: 0.5 nM | IC50 [2]: 2.5 nM

B5: Antibody A-2, phage-displayed Fab clone (Fab, V domains shown)
VH: EVQLVESGGGLVQPGGSLRLSCAASGFTFSSYWIHWVRQAPGKGLEWVARINPPNRSNQYADSVKGRFTISADTSKNTAYLQMNSLRAEDTAVYYCARGSGFRWVMDYWGQGTLVTVSS
VL: DIQMTQSPSSLSASVGDRVTITCRASQDVSTAVAWYQQKPGKAPKLLIYSASFLYSGVPSRFSGSGSGTDFTLTISSLQPEDFATYYCQQFYTTPSTFGQGTKVEIKR
IC50 [1]: 0.5 nM | IC50 [2]: 0.5 nM

B6: Antibody A-3 (antibody, V domains shown)
VH: EVQLVESGGGLVQPGGSLRLSCAASGFTFSSYWIHWVRQAPGKGLEWVARINPANGSTRYADSVKGRFTISADTSKNTAYLQMNSLRAEDTAVYYCARGSGFRWVMDYWGQGTLVTVSS
VL: DIQMTQSPSSLSASVGDRVTITCRASQDVSTAVAWYQQKPGKAPKLLIYSASFLYSGVPSRFSGSGSGTDFTLTISSLQPEDFATYYCQQSFSTPATFGQGTKVEIKR
Kd [3]: 5.88 nM | koff [3]: 0.0004 s⁻¹ | kon [3]: 68000 M⁻¹ s⁻¹ | Kd [4]: 13 nM | koff [4]: 0.0012 s⁻¹ | kon [4]: 92000 M⁻¹ s⁻¹

B7: Antibody A (antibody, IgG1, V domains shown)
VH: EVQLVESGGGLVQPGGSLRLSCAASGFTFSSYWIHWVRQAPGKGLEWVARINPSNGSTNYADSVKGRFTISADTSKNTAYLQMNSLRAEDTAVYYCARGSGFRWVMDYWGQGTLVTVSS
VL: DIQMTQSPSSLSASVGDRVTITCRASQDVSTAVAWYQQKPGKAPKLLIYSASFLYSGVPSRFSGSGSGTDFTLTISSLQPEDFATYYCQQSYTTPPTFGQGTKVEIKR
notes: also called anti-Notch1 NRR Antibody A; Antibody A-hIgG1
Co-culture blocking, IC50 [5]: ~0.1 µg/mL | binding result [6]: no binding | binding result [7]: no binding | binding result [8]: no binding | binding result [9]: no binding | binding result [10]: no binding | binding result [11]: no binding | Kd [3]: 134 nM | koff [3]: 0.011 s⁻¹ | kon [3]: 82000 M⁻¹ s⁻¹ | Kd [4]: 231 nM | koff [4]: 0.021 s⁻¹ | kon [4]: 91000 M⁻¹ s⁻¹
